Measured values published in patent US20260117244A1, “INHIBITORY RNA FOR THE CONTROL OF PHYTOPATHOGENS” (priority 2021, published 2026).

B1: 15 (nucleic acid, listed as Golovinomyces orontii)
chain: CCTTTTGATTACTCCGCCCAACTTTTTTTTTTTAGGTTTTCAGTACTTCACCCTAGGAAGCTCCTCAATCATCATTTCTGAAAAGATGTCATCGTCTCTAGACCAACTTAAATCCACTGGAACTACTATTGTCTGTGATTCAGGTGATTTTGAATCAATTGGCAAATATAAACCTC
modifications: listed as DNA
B2: 87 (nucleic acid, listed as Golovinomyces orontii)
chain: ATGCCTCTACGAAGAATACTAAAGAAGTCAAAATACGCCAAAAAGAGTCCAGAAGAAGAGACTGTCATAACACCCATCTTATTTATGCGTAGCGACACAAAAACAGAGGAGATTATTTATCCACCTAGTTATCCTGATCATGAAGAATCCTTACGCAGTAAAAAGGGGCGAAACAAGAAGGAAATACCTAGGACCCCTTCGGAATCTCGTAAATCATCTCTTAGACTCAAGCCAAACTTTCTGAAAAACCAGAAATCCGAAAAGGTGCCAGAAAATCTGCCAGATATAGAGATCATTGCTGATCAGGTCGAGAGGAGAATCAGGGCACAATGGGAAAAACGTGCGACAATTCTAGCCAAAAGAAATGAGGAAACAACAGCTAAGTATCTATCAATCACTGACGATAAACATGCAAAGGAGGTGAGAATGGCGAGAGAGCTGGACGAGGCAAATTCGGCCAACGATAACATTATAGAAGCAATTAGACTACATGAAGCGGGGAGCCGGCTGGCGGAGTTCCAAAATGAGAATAATACCCTCAGTCAAGTATTGTACGGTCTTTCTTTAAGGTACGCATGGCTGGGGATGTACTCCAGATCCGGAAAAGGCACTCAAATACCTTCAGCTGCAGCATCGTGTGCAGCCTCAATCGAGGATTTAGCACTTAGGGCGGGGAAGAAAAGTGGAGGAGCAGCGAAAGATGAATTAGTTCTTGCTATTTACGAGCTCGCAAATAGTTTTAGACATGGCTGGGGAATTCCGATCGACCGAGTGGCTGCGAAACAGTACTATGAGACGGCAGCTAATTTGGGTGATACGGACGCTATGAATGAAGTGGCCCGATGTTATGCCGAAGGAATCGGTTGCAAGAAAGACATGTTTGTGGCTGCTAAATACTACAGGATGGCTGAGAGTAAGGGTAACAAAATCATTGGAAACTCCTGGTACGTTGCAATTTTTGCTCTCTAA
modifications: listed as DNA
B3: 64 (nucleic acid, listed as Golovinomyces orontii)
chain: ATGGAGGCATGTGTGATCGACGTGGTGGCTACTAGGGTAGACGATTGCGAAACTCCAGCGTCGAAAGATACCTCCAACGCTTGGTGTCATCCAGGAGCTGCCGCTTTCGATTTTCGCAGTGATGTCTTTACTTCACCGACTTGCTCAATGCTCGAAGCAATCAAAAACACAACCTTACTCGATGATGTCTATCAGGCTGATCCTACCACAAATGATCTGGAATCACACTTGGCAGCGCGCACATCTCATGCCGCAGCACTGTTTGTCTTGTCTGGCACTATGGGGAATCAAATAGCTCTACGTTCTCACTTGCAACAACCACCGTATGCAATTCTTTGCGATCATCGAAGTCATATTTTTCAATGGGAAGCGGGCGGCGTTGCAAGTCTCTGCGGTGCACTTGTCAAAACTGTTGTACCAGCAAACGGTGAGTATCTTACTCGGGAAGATATTGAGAGTAATGTTGTGCTTGGTGATGATATTCATAGTACGCCTACTCGGGTTATATCTCTTGAAAATACACTGGGTGGCATTGTAATACCGCTAGAGGAGACGCGACGTATAACGAATTTTGCTCGAGAAAACAATATCAAGGTTCACCTTGATGGTGCACGATTGTGGGAGGCAGTCGCTGCAGGTGCAGGTTCACTTACCGATTATTGTGCTCTGTTTGATAGTGTAAGTCTATGTTTCTCCAAGGGACTCGGAGCACCAGTCGGCAGTATTTTAGTTGGTGGAGAGGCTTTTATCAAACATGCTAGATGGATAAGAAAGTCGATTGGTGGCGGCCTTCGTCAGCCTGGTCTGTTAACAGCAACAGCCAGGGTTGCTCTGGATGAAACGTTTGGAAGTGGCCCTTGGGGTGAAGGCGGAAAGCTAAAAGGCACTCACTTTGTAGCGAAAAGGATAACTGCACTCTGGACGTCGCTAGGTGGGAAACTACTGAGGAGGACCGAGACAAATATGGTTTGGTTAGATCTTGAGGGTTCTAAGATTAGTGTAGAGACGTTTGTGAAAATTGGAGCAGAGCATGGGGTAGCACTCGAAGGTCCAAGGCTAGTGGTGCATTATCAAATTGAAGACGCTGCAGTAGAGAAGTTAAAAGCAGTTTTTGAACAGGTCCTGCTTAAAACCTAG
modifications: listed as DNA
B4: 32 (nucleic acid, listed as Golovinomyces orontii)
chain: GGTTCATCACCTCTAAATTTGTGAAGAGGTTTCTAAAAGATTCATCTCATCTCATAGCCAGAATTTAGACGCTGTATAAACGATGTTTGGGTCAGGATGTCCGATCAGAATGTATCCAAGAGTCAAGCGTAAATTCTGCAGGCTAGATGTATTTCGTCCCATCATGAATCGTAGATACAAAAGCGGACCTTTTGGCTATACGATGGCACAGGCGCTCGTTTACATGAAGCATGGTGAACCAGACGATGTACTCTCTCTTCATCGTCACTCCATTACACCTACACTTCCACCAGATTCTATTTTCTTACGGACACTTGCAAGCCCAATCAATCCAGCCGATATCAACCAAATTCAAGGTGTCTATCCGTTAAAACCAGAATTCTCGCCTCTACTTGGTACACCGCTTCCGAGCGCTGTAGGTGGGAATGAAGGCTGTTTTGAAGTTGTTTCACTCGGCTCTTCAGTGACTGATGTTAAGAAAGGCGACTGGGTGGTGGCAAATACCCCTGCACTCGGCACCTGGCGTACGCATTTGGTTGTACAGAAGTCTGATATTTTGCCCGTAGAGAAAAAAGGGTTAACCGCAACACAAGTTTGTACTGCATCGATCAATCCGCGAACAGCTTACTGCATGTTGAATAACATTGAGAAACTGCAGAAAGGTGATTGGTGGATTCAAAATGGAGCCAACAGTAGCGTGGGTCGTGCCGCAATTCAATTGGGAAAGTTATGGGGCTTTAAATCAATAAATGTCATTAGAGATCGACCAGACGTGGTATCTACCGAGTCCTTGCGGGCTGAATTGTTAGAATTAGGTGCTACACATGTTGTCACAGAAACAGAGCTGCTTGACAGAGGCTTTCGAGAGCTCGTGACGAAATGGACTAATGATAATAATAAGGGAATTAGATTAGGCTTGAACTGTGTTGGGGGTAAGTCTACAACGGCATTGGTAAAATTACTCGGGAAAAGAGGTCATTTAATCACATATGGTGGCATGTCTCGACAACCTCTACAACTTCCAACCAGCCGCCTCATATTTGATGATCTACGTTTTAGTGGCTTCTGGATTAGTCGCTGGTCCGTCGATAATCCTCGGGAAAGTCAGCACATGCTCAACAAAGTTCTGGACCTCATTCGTACAGGTTCTTTGAAGGAAACTCCTCATCACGAAATACTCTGGAATTGGGATACTAAGATTCAAGTACTCAATGAAGGAATTAAAGGTGCACTTCAGGGTTATCGAAACGCCAAAAATATTCTTGTTTACGGAGATACATAAATTTTGAGT
modifications: listed as DNA
B5: 79 (nucleic acid, listed as Golovinomyces orontii)
chain: ATGTCAGCATCTAGCCTTTCTCAGTCTACAGCTGAGAAAAGACACGAAGAATATCAGTATTTAGATCTGATCTCCGAAATAGTAGAGACAGGGGAGCATCGACCAGATCGAACTGGAACTGGAACCTTTTCTTTGTTCGCGCCAAAACCTTTAAAATTCCAGCTTTCTGAATCTGGAAAGCCGATTCTGCCCCTAATTACAACCAGGCGCATCTTCTTACGTGCTGTAATCACCGAACTTCTCTGGTTCATATCCGGCTCGACCTCCTCCATTCCTCTGGTAGAAGCAGGAATAAAGATTTGGGATGGAAATGGAACCCGTGAATATCTTGATTCGGTTGGTTTATCTCATCGTGATGTTGGAGATCTTGGTCCAATATATGGATTCCAATGGCGTCATTTTGGTGCCGACTACGTTGATGCTAACACTGACTATACTGGGAAAGGGGTTGATCAACTCGCTGAAGTTGTTGCAAAACTCAAGACAAATCCATATGACCGCCGCATTATTCTTACAGCCTGGAACCCGCGGGATCTAAAGTCAATGGCTTTACCGCCTTGTCATCTTCTTGCACAATTTTACGTCTCATTCCCACAAGGTAGTAAATCTGTTGGGACTCTTCACTGTCTTTTATATCAGCGTAGCTGCGACATGGGCCTTGGAGTACCATTTAATATTGCAAGCTATGCCTTACTCACTCATATGTTGGCTCATACATGCGAACTACTGCCTGGGACTTTGACGCACACCATGGGTGATGCACATGTCTATGCCGATCATGTTGAGGCTTTAAAAACACAACTGACACGTGAGCCGCGTCCATTCCCTGAAATTGAGATTAGGAAAGAAAAAGGAGGAAGTATAGACGGCTGGCTTGTCGATGATTTTCTCATCAAAGGCTACGAACCGCACAAGTCTATCTCGATGAAGATGTCGGTGTAA
modifications: listed as DNA
B6: 70 (nucleic acid, listed as Golovinomyces orontii)
chain: ATGTCAAGATCCCTTCACAATCTGAGCACCATTCAGAAGCTTTTTCCAATCTTGGGACCATCTCAAATTACTTCTAAGTTTTTGCTATGTTCACGTACATTATTTAGGCAGACTCGCTACAGTTCCCAATTTAATTTGGGCTATACCCGGGCCATTGAAAGGAAACCCTTAACTTTAAAGTCTATTGAATCTTTGTACAAAAGAGAGGAGCCCATCTTGGCACTCACTGCCCACGACTTTCCCAGTGGATATATTGCTGATGAAGCTGAGATTGAAATCGTACTTGTGGGAGACAGCCTGGCCATGGTAGCAATGGGGTTAGAAGATACAAGTGAGATTCTACTTGAAGAGATGCTACTCCATTGTCGCTCTGTTTCTCGAGCTGTGAAGACTGCTTTTACGGTAGGGGATCTTCCTATGGGATCCTATGAAGTATCCCCAGAACAGGCTCTAATTTCTGCTATTCGGATGATTAAGGAAGGTAGAGTAAAAGCTATTAAATTAGAAGGAGGCGCAGAAATGGGCCCAACCATAAAGAAAATAGTTACTGCCGGTATTCCGGTTCTCGGGCATATAGGGTTAACTCCGCAACGACAAAATTCTTTGGGCGGCTTCCGAGTACAAGGAAAGACCTCCAAGAGTGCACTCAAGATTCTTGAGGATGCATTAGCCATACAGGAAGCAGGCTGTTTTGCTGTTGTGATTGAGGCTATACCCGCAGAGGTAGCTACCATAATTACAAAGGAACTTTCAATCCCAACTATCGGTATTGGCGCTGGTAATGGCTGTTCAGGCCAAGTACTAGTTCAGGTTGATATGACTGGAAATTTTCCACCCGACCGTTCGATACCAAAATTTGTCAAAAAGTATTGTGACATTTGGAATGAGAGCTTGATGGGGATACGATCATATCGAGAAGAAACTAAGTGTAGGAAGTTTCCCGCACACGAACACACTTACTCAATCCCTAAAAATGAACTTGCTGAGTTCGAGAGAATACTAGCTTCTAAAGAACACTAG
modifications: listed as DNA

Test system: G. orontii MGH1
Assay: Spray-induced gene silencing (SIGS), G. orontii spore production on A. thaliana (whole plant and detached leaf assays)
Format: in vivo, Golovinomyces orontii
Conditions: topical dsRNA against G. orontii target (Gor Seq ID); detached leaf assay; n>=3

| Molecule | G. orontii Spore Production on Arabidopsis, Detached Leaf Assay, % reduction [%] |
| --- | --- |
| B1 | 38 |
| B2 | 42 |
| B3 | 55 |
| B4 | 50 |
| B5 | 68 |
| B6 | 46 |
